Eight sequences from the DeepSol protein solubility set can be followed below.

This data set in a line: soluble on expression in E. coli; label from the status in PepcDB or PDB records.
Consider “MSLNTISGTHFNYHQVCRRKLWLFSAGITMEHTSDLVYEGKLIHETTYQQRPERYQELELDGIKIDFYDAKNRVVHEVKKSNKISPAHRLQLLYYLYVLERNGVLGATGILEYPTLRKKEEVILSDIDRERIREIEQEILQIISHEDCPPVIDSGICKNCSYYEFCFSGEEQEGHHHHHH”, for which the “soluble on expression in E. coli” value is “soluble”.

Regarding “MVVSIGVFDGVHIGHQKVLRTMKEIAFFRKDDSLIYTISYPPEYFLPDFPGLLMTVESRVEMLSRYARTVVLDFFRIKDLTPEGFVERYLSGVSAVVVGRDFRFGKNASGNASFLRKKGVEVYEIEDVVVQGKRVSSSLIRNLVQEGRVEEIPAYLGRYFEIEGIVHKDREFGRKLGFPTANIDRGNEKLVDLKRGVYLVRVHLPDGKKKFGVMNVGFRPTVGDARNVKYEVYILDFEGDLYGQRLKLEVLKFMRDEKKFDSIEELKAAIDQDVKSARNMIDDIINSKFEKEG”, the “soluble on expression in E. coli” value is reported as “soluble”.

On to “MAHHHHHHMKRFFKSDGTPYNRDAANNLYGSEHTHRGGVEALSEGVAAGQYGEHKPRAIMFVNKRPVEIIPQEENLLEVLEREGIRVPKFCYHPILSVAGNCRMCLVQVDGTQNLVVSCATVALPGMSIITDSRLVRDAREGNVELILINHPNDCPICEQATNCDLQNVSMNYGTDIPRYKEDKRAVQDFYFDPQTRVVLNRCIHCTRCVRFLNEHAQDFNLGMIGRGGLSEISTFLDELEVKTDNNMPVSQLCPVGKIYLGDADENNLIAEQLDVSYESECGDRGTVTLGK”, for which the “soluble on expression in E. coli” value is reported as “not soluble”. The value for “MGSDKIHHHHHHMYVGTQVAARDDEDFKVWAQLGVKNISADPPGKPASWVLDDFERLRDKVESFGLVLDMVQLPLPSRPIEQASYPDILLAGPERDRQIDAVCTMIENIAKAGIPAAKYNLNLIGIPRTEMELGRGGSLNEAWRWDKADHNADPGLAGVLSEDENWERIDYFLERVVPVAASNKVRLACHPHDPYTPPGYKGVTRVLGTIEGLKKFVQMRENPYHGLNFCQGSIGEMLDNPREEIDDIIRWFGSRDKIFNVHFRNISGGKLSFMETFPDEGDMDMVRSLKLYHELGYRYMIMPDHVPTIAGRDPVGVAFGFCYGYIAALIEALDNKHL” was “not soluble”; that for “MAHHHHHHMMRRVYAPVFCSVAAARFAATSAAKKYDLFGYEVDTNTAPWIEKIKKCKYYDEAGEVLVNMNVSNCPPDIATYNATLQCIYQSPSKQSTPVDNESKFCAMMDLLEEMQHRNRLKPNEESWTWVMKECVKSGQFRLGYCIQQVMETECKGCPADLVKANEANAQKAKTEGKEHPGHLSQQAGLFDVKVE” was “not soluble”; that for “MGSDKIHHHHHHMKAISNDKPQGVCATDFASVLGEENAVCLWENIEIGQQKRIQQAVTSGKPPTCIVYPRTQQQLAAVIAKAYSHNWRVLPCGSGSKLSWGGLAKGVDVVVGTERINQLIEHAVGDLTVTVEAGMKFSDLQALLAKSRQFLALDPTAPQSATIGGIVATGDTGSLRQRYGSVRDQLLGVTFVRADGEIAKAGGRVVKNVAGYDLMKLLTGSYGTLGFISQLTFRVYPLSEASGTVVLTGSAEAVSQAADILRGSALTPVQADLLSTKLVSSLGLGEGLGLIARFQSISESVKEQSNRVLEVGQKLGLDGAIFADADEASLWQRLQERIHSTATESVITCKIGVLPTAAVDILTQVGLGLIHISSGLGLLQLEDKNQVLKVREQLRSAGSDGTQANSGFLTILEAPMAVKEQVDVWGYNGNALPLMRRIKEQFDSKNILSPGRFVGGI” was “not soluble”. Then “MGHHHHHHSHMWTPTEEEKYGVVICSFRGSVPQGLVLEIGETVQILEKCEGWYRGVSTKKPNVKGIFPANYIHLKKAIVSNRGQYETVVPLEDSIVTEVTATLQEWASLWKQLYVKHKVDLFYKLRHVMNELIDLRRQLLSGHLTQDQVREVKRHITVRLDWGNEHLGLDLVPRKDFEVVDSDQISVSDLYKMHL”, with “not soluble”; and “MRFITIAAVLLVSSLLIVEASSIRDKRQSCGCASQVQPSCSCQQATQPQQYSCSCQNTAPVQTSCSCAQPVQQVTYQVQTSQCAPACQQSCQNQCQFAPSMNECQSSCQQTCQTSSCYTQIAAPAPVQCQPSCMPACEQSCVAPAPVTVQCVPQCQQKCTQQCVQAQPIQQCQPQCQQQCVQQCAPTVAPQVINVNLGISAQCAPQCQQQCQQQCLLQQVPVQQCYQECTQPCQTTCQQAAPQCVQQCAPQCQQPSAPQCQQCQNTCQQYAPVCQQQCAPQCTLPSAPACQQCQTSCQQTQQCQQQCIPQCQQPAAPQCQQCQSACQSPVVAPQIVTVILEPSVSQSAQCVPQCQQSCQQQCIQQQQPMQQCAPACTQSCYQSCSTAQLVQMPCLTQSVNSCSCQQNYSPCGNGQCCKRM”, with “not soluble”.
